The chains are these.
B1: MtrR(T11A) (natural protein, Neisseria gonorrhoeae)
chain: MRKTKTEALKAKEHLMLAALETFYRKGIARTSLNEIAQAAGVTRGALYWHFKNKEDLFDALFQRICDDIENCIAQDAADAEGGSWTVFRHTLLHFFERLQSNDIHYKFHNILFLKCEHTEQNAAVIAIARKHQAIWREKITAVLTEAVENQDLADDLDKETAVIFIKSTLDGLIWRWFSSGESFDLGKTAPRIIGIMMDNLENHPCLRRK
notes: MtrR of Neisseria gonorrhoeae, point mutant; Made by site-directed mutagenesis of the mtrR-pMCSG7 construct; source: expressed from the pMCSG7 vector, purified (Ni-NTA, TEV cleavage, Ni-NTA, S200 size exclusion); not shown: His6, N-terminal, cleaved
B2: MtrR(H50A) (natural protein, Neisseria gonorrhoeae)
chain: B1 chain with A11T, H50A
notes: as for B1
B3: MtrR wild type (natural protein)
chain: B1 chain with A11T
notes: MtrR, TetR-family transcriptional repressor of Neisseria gonorrhoeae, product of the mtrR gene; also called WT MtrR; MtrR WT; source: expressed from the pMCSG7 vector, purified (Ni-NTA, TEV cleavage, Ni-NTA, S200 size exclusion); not shown: His6, N-terminal, cleaved
B4: MtrR(W49A) (natural protein, Neisseria gonorrhoeae)
chain: B1 chain with A11T, W49A
notes: as for B1
B5: MtrR(Y48F) (natural protein, Neisseria gonorrhoeae)
chain: B1 chain with A11T, Y48F
notes: as for B1
B6: MtrR(T43A) (natural protein, Neisseria gonorrhoeae)
chain: B1 chain with A11T, T43A
notes: as for B1
B7: MtrR(G45A) (natural protein, Neisseria gonorrhoeae)
chain: B1 chain with A11T, G45A
notes: as for B1
B8: MtrR(R44A) (natural protein, Neisseria gonorrhoeae)
chain: B1 chain with A11T, R44A
notes: as for B1
B9: MtrR(W49F) (natural protein, Neisseria gonorrhoeae)
chain: B1 chain with A11T, W49F
notes: as for B1
B10: MtrR(T43S) (natural protein, Neisseria gonorrhoeae)
chain: B1 chain with A11T, T43S
notes: as for B1
B11: Selenomethionine-derivatized MtrR (natural protein)
chain: B1 chain with A11T
modifications: selenomethionine-derivatized
notes: MtrR, TetR-family transcriptional repressor of Neisseria gonorrhoeae, product of the mtrR gene; Same construct as m1 with methionines as selenomethionine; also called Semet-MtrR; not shown: His6, N-terminal, cleaved

Positions count from the first letter of the chain named. Names may count otherwise.

Usually stoichiometry N stands for a count of units in the complex or per binding partner.

One data set concerns the molecule itself. Kind of data set: SEC; elution of purified point mutants compared with WT MtrR (Supplementary Figure S4); S200 column named in the purification. On the technique in general: In gel filtration, larger molecules generally elute earlier.
For the protein B1, the “stoichiometry N” value is 2.

With B2, the “stoichiometry N” value was 2.

Regarding B3, the “stoichiometry N” value was determined as 2.

B4: the “stoichiometry N” value came to 2.

For the protein B5, the “stoichiometry N” value amounted to 2.

Turning to B6, the “stoichiometry N” value worked out at 2.

As for B7, the “stoichiometry N” value turned out to be 2.

As to B8, the “stoichiometry N” value was 2.

Turning to B9, the “stoichiometry N” value was 2.

On to B10, for which the “stoichiometry N” value is 2.

The next data set deals with the molecule itself. In words: crystal structure; MtrR dimer bound to a 21-mer operator oligoduplex (Semet-MtrR with rpoH, native MtrR with mtrCDE); hanging drop, 200 mM calcium acetate, 27% PEG 8000, 100 mM Tris pH 7.5.
Regarding B11, the binding result was “binds”.

For the origin of these results see PMC8053128, “Structures of Neisseria gonorrhoeae MtrR-operator complexes reveal molecular mechanisms of DNA recognition and antibiotic resistance-conferring clinical mutations” (Nucleic Acids Research, 2021).
